These results are taken from publication PMC10267678 (2023).

Assay [1] concerns the target T1, full-length human TNC protein (human, UniProt P24821 23-2201). Kind of assay: BLI. (In general: BLI is a label-free optical method that tracks binding on a fibre tip over time.)
Assay [2] addresses T1, full-length human TNC protein. Kind of assay: BLI. The source holds these as a separate data set.

T1 sequence (P24821 23-2201): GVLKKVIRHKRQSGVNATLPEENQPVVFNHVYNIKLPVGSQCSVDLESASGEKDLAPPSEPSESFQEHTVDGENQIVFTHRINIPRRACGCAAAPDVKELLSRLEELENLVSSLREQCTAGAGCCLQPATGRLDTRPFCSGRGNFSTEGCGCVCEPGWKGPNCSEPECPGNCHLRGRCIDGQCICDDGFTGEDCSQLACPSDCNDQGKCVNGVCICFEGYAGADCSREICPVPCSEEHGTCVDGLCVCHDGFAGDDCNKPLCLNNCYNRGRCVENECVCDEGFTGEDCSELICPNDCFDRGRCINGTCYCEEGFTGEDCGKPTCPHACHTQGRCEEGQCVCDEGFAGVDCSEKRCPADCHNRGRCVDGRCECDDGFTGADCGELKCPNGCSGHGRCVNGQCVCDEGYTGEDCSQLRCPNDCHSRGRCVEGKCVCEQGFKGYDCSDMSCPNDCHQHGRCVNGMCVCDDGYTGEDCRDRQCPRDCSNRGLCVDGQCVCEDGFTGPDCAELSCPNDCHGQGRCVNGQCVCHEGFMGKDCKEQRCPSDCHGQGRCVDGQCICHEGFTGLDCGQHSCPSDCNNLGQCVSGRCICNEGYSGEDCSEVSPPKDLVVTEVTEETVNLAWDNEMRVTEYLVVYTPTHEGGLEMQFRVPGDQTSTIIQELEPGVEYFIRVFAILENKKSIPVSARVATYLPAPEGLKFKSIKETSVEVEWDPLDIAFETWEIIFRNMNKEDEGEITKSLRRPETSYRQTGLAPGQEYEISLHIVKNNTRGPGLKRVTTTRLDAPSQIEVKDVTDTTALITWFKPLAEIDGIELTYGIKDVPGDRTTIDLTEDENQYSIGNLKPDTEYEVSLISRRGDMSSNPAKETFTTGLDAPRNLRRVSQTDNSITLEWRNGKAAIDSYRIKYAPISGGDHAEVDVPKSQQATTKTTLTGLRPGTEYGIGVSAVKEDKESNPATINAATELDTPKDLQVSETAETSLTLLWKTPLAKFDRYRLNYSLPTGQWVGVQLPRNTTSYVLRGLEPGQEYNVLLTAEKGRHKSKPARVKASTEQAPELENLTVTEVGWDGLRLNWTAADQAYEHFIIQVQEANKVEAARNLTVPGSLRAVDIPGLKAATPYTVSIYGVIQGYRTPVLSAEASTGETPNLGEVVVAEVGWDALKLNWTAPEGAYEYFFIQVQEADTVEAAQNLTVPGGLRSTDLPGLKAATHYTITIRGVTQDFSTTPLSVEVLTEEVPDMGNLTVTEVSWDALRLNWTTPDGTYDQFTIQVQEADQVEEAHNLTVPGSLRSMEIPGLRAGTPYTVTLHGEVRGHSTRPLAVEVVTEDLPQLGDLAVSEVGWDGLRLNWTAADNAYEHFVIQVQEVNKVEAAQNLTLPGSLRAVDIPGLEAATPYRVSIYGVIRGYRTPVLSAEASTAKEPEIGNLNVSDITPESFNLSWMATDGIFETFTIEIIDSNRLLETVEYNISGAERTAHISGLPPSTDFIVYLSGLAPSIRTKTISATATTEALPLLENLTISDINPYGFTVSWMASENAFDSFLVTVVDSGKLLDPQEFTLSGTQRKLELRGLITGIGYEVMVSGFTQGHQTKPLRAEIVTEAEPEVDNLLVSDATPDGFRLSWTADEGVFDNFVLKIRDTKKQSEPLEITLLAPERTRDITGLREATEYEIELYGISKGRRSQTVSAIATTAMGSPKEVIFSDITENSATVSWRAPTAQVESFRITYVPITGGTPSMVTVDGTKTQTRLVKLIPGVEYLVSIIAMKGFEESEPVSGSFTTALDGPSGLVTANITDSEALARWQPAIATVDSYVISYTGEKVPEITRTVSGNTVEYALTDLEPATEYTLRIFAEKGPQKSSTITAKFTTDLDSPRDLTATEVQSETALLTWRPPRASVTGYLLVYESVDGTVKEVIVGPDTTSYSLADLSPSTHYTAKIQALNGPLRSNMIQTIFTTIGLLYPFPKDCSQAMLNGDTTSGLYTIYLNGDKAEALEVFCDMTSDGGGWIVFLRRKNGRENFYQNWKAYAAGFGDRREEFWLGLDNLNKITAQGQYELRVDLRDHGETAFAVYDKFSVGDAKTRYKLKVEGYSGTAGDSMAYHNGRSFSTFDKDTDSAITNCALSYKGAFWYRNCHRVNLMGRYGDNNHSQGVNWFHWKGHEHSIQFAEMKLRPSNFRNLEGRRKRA

B1: NJT3 (VHH)
VHH: QVQLVETGGGLAQAGGSLRLSCAASGRTLSGYAMGWFRQAPGKEREFVAAISWSGRNTYYDYTVQGRFTISKDNAKNTVNLQMNSLKPEDTAVYYCAVSRSLDEFGDGYEMDYWGDGTQVTVSS
modifications: biotin (BLI, IHC) or Alexa-647 (two-photon imaging) added at the C-terminus by sortase-mediated tagging
On to B1, for which the koff (commonly a measure of how fast the partners let go of each other) in assay [1] amounted to 2.35e-07 s⁻¹. In assay [2], the affinity, expressed as Kd, was 1.47 pM.

B2: NJT4 (VHH)
VHH: QVQLVESGGGLVQPGGSLRLSCAASGFTFSSYTMRWYRQAPGKERELVAFIGVAGGSTKYADSVKGRFTISRDNTKNTVYLQMNTLKPEDTAVYYCYAPLTPYWGQGTQVTVSS
modifications: biotin (BLI, IHC) or Alexa-647 (two-photon imaging) added at the C-terminus by sortase-mediated tagging
Regarding B2, the koff in assay [1] is less than 1e-07 s⁻¹. Further, in assay [2], the Kd (commonly the constant that tells how readily two partners part at equilibrium) is less than 1 pM.

B3: NJT6 (VHH)
VHH: QVQLVETGGDLVQPGGSLRLSCAASGLTLDYYAIGWVRQAPGKEREGVSCITPQDGNTYYDDSVMGRFTILRDNAKNMVYLQMNNLKPEDTAVYFCAAAGALTLDPSEYEYWGQGTQVTVSS
modifications: biotin (BLI, IHC) or Alexa-647 (two-photon imaging) added at the C-terminus by sortase-mediated tagging
B3 returned a koff in assay [1] of less than 1e-07 s⁻¹. Also, the Kd in assay [2] is less than 1 pM.
